In test [1] the target is T1, human complement component C1q (human, UniProt P02745 23-245; P02746 28-253; P02747 29-245).
T1 construct: the three subunits are from general knowledge
As to the kind of experiment: SPR.

The target of test [2] is T2, recombinant cynomolgus monkey CD96v2 (cynomolgus monkey, UniProt A0A2K5TWV6 22-487, biotinylated (site not stated)).
T2 construct: Soluble recombinant protein used in MSD-SET; also called cynomolgus monkey biotinylated CD96 protein
T2 sequence: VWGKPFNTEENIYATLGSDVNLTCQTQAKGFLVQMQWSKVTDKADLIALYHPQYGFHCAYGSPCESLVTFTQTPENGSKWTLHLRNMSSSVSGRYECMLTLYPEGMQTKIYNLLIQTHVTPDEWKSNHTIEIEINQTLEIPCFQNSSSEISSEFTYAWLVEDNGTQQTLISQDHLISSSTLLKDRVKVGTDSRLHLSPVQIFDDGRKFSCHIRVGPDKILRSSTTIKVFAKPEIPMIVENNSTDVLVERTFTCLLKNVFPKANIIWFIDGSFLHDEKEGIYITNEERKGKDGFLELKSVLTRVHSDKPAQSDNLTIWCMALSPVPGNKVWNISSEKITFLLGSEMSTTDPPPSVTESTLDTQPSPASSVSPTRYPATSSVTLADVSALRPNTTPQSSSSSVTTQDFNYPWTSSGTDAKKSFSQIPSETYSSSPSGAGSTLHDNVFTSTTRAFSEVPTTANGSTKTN
The test can be described thus: MSD-SET solution equilibrium titration, antibody titrated against constant biotinylated CD96, free antigen detected.

Test [3] concerns the target T3, human CD96v2 expressed on cells (CHO cells; transiently transfected HEK cells) (human, UniProt P40200-2 22-569).
T3 construct: whole, on cells; the cell is named under assay; also called CHO-huCD96; hCD96v2
T3 sequence (looked up): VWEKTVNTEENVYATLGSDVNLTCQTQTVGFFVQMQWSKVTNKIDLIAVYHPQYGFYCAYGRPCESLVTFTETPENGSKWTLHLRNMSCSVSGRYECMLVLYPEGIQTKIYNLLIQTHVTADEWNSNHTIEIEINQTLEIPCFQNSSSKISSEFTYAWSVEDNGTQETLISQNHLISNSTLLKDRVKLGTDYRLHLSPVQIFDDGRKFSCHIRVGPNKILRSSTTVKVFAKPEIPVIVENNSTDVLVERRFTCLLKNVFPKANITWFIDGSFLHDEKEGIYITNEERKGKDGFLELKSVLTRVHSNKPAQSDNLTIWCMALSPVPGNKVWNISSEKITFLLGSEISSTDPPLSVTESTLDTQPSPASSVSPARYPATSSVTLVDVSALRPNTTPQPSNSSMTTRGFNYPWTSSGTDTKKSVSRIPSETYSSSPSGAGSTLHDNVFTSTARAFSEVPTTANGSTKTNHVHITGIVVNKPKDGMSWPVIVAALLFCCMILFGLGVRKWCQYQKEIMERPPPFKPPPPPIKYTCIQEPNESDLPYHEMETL
The test can be described thus: flow cytometry, inhibition of human CD155-Fc-AF647 binding to CHO cells expressing human CD96v2; competitor CD155-Fc.

T1 sequence (P02745 23-245 limits assumed, chain 1 of 3): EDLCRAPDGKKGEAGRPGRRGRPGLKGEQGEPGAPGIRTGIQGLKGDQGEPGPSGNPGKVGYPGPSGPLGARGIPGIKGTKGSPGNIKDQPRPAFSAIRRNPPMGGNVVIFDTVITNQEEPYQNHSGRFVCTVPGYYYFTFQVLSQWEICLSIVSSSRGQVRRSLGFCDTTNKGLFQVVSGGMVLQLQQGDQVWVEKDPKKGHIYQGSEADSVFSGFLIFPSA
T1 sequence (P02746 28-253 limits assumed, chain 2 of 3): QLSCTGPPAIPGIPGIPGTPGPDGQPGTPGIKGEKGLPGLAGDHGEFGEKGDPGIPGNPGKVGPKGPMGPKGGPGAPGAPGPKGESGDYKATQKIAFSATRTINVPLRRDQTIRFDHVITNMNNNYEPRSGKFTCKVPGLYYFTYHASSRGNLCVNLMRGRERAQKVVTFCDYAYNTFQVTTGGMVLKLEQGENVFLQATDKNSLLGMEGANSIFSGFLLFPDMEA
T1 sequence (P02747 29-245 limits assumed, chain 3 of 3): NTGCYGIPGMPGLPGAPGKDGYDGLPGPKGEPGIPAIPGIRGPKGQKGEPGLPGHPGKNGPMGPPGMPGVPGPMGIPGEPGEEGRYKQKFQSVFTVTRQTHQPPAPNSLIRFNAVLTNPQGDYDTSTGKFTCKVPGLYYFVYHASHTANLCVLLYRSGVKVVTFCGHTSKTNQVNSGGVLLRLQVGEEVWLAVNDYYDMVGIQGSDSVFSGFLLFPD

B1: 42Y073-86F08-66 (antibody)
heavy: not shown
light: DIQLTQSPSSLSASVGDRVTITCRASQSISSYLNWYQQKPGKAPKLLIYAASSLQSGVPSRFSGSGSGTDFTLTISSLQPEDFATYYCQQVLHTITFGGGTKVEIKRTVAAPSVFIFPPSDEQLKSGTASVVCLLNNFYPREAKVQWKVDNALQSGNSQESVTEQDSKDSTYSLSSTLTLSKADYEKHKVYACEVTHQGLSSPVTKSFNRGEC
notes: also called GSK 6097608; GSK6097608
Turning to B1, the Kd in test [1] turned out to be 94.4 nM. For the same molecule, the “IC50 (read off the curve)” value in test [2] is roughly 0.4 nM. For the same molecule, the IC50 in test [3] turned out to be 1.55 nM.

Values taken from patent US12528864 (GlaxoSmithKline, dated 2026).
